Experimental data from the Human Domainome abundance scans (Beltran et al. 2025).

B1: Dynamin-binding protein, residues 242 to 304; numbered along this chain, Q6XZF7 (parent)
chain: EEPGTYGVALYRFQALEPNELDFEVGDKIRILATLEDGWLEGSLKGRTGIFPYRFVKLCPDTR

Variants of: B1
Assay: abundance fitness (aPCA) (normalised: wild type 0, dead -1); higher = more abundant; growth selection in yeast, the domain comes from the species named
Conditions: Homo sapiens

Abundance fitness: each site, then its substitutions
L35: A -0.304, F -0.315, E -0.876, C -0.178, D -0.664, G -0.374
L32: D -0.495, T -0.312, H -0.008, P -0.687, A -0.866, V -0.176, Y -0.744, W -0.784, F -0.652, C -0.657, Q -0.243, R -0.592, G -0.635, K -0.588, I -0.19, M -0.394, N -0.097
E24: W -0.438, R -0.445, N -0.032, A -0.593, P -0.75, H -0.199, Y -0.423, L -0.491, T -0.278, C -0.414, F -0.301, Q -0.024, M -0.313, D 0.009, V -0.471, I -0.444, G -0.596
F23: H -0.787, Y -0.688, T -0.775, K -0.13, G -0.682, I -0.165, P -1.09, S -0.527, W -0.63, V -0.334, C -0.717, E -0.94, N -0.805, D -0.867, L -0.136, A -0.585, M -0.227, Q -0.767, R -0.684
A33: G -0.201, E -0.578, M -0.438, Y -0.568, I -0.703, C -0.291, H -0.021, Q -0.188, K 0.005, N 0.017, P -0.429, W -0.671, S 0.043, T -0.009, R 0.033, F -0.726, V -0.445, L -0.644, D -0.24
T34: P -0.59, F -0.063, K -0.036, C -0.323, D -0.114, H 0.067, E -0.038, M -0.086, N -0.289, G -0.481, S -0.077, Q -0.183, R -0.196, V -0.192, A -0.33, L -0.41, I -0.168
E17: C -0.259, Q 0.189, A 0.029, V -0.4, H 0.229, T -0.157, F -0.513, P -1.01, N 0.158, L -0.011, W -0.488, K 0.391, I -0.783, R 0.151, Y -0.234, G 0.072, S -0.062
V25: T -0.412, G -0.539, C -0.328, P -0.14, R -0.223, F -0.573, E -0.475, L -0.933, M -0.169, A -0.089, Y -0.463, Q -0.548, K 0.095, D -0.899, S -0.448, I -0.142, N -0.736
N19: C -0.518, Y -0.299, M -0.494, R -0.167, L -0.52, G -0.055, F -0.297, P -0.704, Q -0.188, I -0.644, S -0.275, V -0.563, A -0.18, K -0.227, T -0.223
I31: Y -0.91, A -1.03, W -0.901, K -0.85, E -0.587, G -0.512, Q -0.084, V -0.463, C -0.527, H -0.448, F -0.926, R -0.883, P -0.862, L -0.702, M -0.755, D -0.743, N -0.85, S -0.879, T -0.722
K28: Q -0.604, G -0.711, L -0.57, D -0.799
